Read-outs that look alike come from different tables or passages of the source.

Experiment [1] addresses T1, Core_NNNN-es_KEEE.
T1 chain: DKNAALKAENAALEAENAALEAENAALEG
The experiment in a line: two-hybrid library CCmax.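 Further: natural log of median RNA to DNA barcode read ratio; higher means stronger binding.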

The target in experiment [2] is T2, 4H1765-AA.
T2 chain: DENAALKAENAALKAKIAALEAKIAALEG
The experiment in a line: two-hybrid library CCmax.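 Further: natural log of median RNA to DNA barcode read ratio; higher means stronger binding.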

The target of experiment [3] is T3, 4H1821-AA.
T3 chain: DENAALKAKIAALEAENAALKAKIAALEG
The experiment in a line: two-hybrid library CCmax.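 Further: natural log of median RNA to DNA barcode read ratio; higher means stronger binding.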 To be noted: mean of both orientations.

In experiment [4] the target is T4, 4H1828-AA.
T4 chain: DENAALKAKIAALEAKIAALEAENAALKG
The experiment in a line: two-hybrid library CCmax.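 Further: natural log of median RNA to DNA barcode read ratio; higher means stronger binding.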 To be noted: mean of both orientations.

Experiment [5] has as its target T5, 4H1930-AA.
T5 chain: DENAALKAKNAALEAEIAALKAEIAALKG
The experiment in a line: two-hybrid library CCmax. To be noted: mean of both orientations.

For experiment [6], the target named is T6, 4H2124-AA.
T6 chain: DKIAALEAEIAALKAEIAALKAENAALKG
In words: two-hybrid library CCmax.

Experiment [7] concerns the target T7, 4H2165-AA.
T7 chain: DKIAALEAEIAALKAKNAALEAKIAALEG
The experiment in a line: two-hybrid library CCmax. To be noted: mean of both orientations.

In experiment [8] the target is T8, 4H2253-AA.
T8 chain: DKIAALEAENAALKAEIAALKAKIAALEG
In words: two-hybrid library CCmax. As to conditions: mean of both orientations.

In experiment [9] the target is T9, 4H2330-AA.
T9 chain: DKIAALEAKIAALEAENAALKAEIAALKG
The experiment in a line: two-hybrid library CCmax. To be noted: mean of both orientations.

Experiment [10] addresses T10, 4H2343-AA.
T10 chain: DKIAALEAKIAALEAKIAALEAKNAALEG
In words: two-hybrid library CCmax. As to conditions: mean of both orientations.

The target of experiment [11] is T11, 4H2466-AA.
T11 chain: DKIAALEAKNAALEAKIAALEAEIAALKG
The experiment in a line: two-hybrid library CCmax. As to conditions: mean of both orientations.

Experiment [12] has as its target T12, 4H249-AA.
T12 chain: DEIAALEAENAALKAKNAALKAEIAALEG
In words: two-hybrid library CCmax. As to conditions: mean of both orientations.

For experiment [13], the target named is T13, 4H2592-AA.
T13 chain: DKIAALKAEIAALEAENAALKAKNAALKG
In words: two-hybrid library CCmax. As to conditions: mean of both orientations.

Experiment [14] has as its target T14, 4H2732-AA.
T14 chain: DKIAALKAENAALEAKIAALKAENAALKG
In words: two-hybrid library CCmax. To be noted: mean of both orientations.

In experiment [15] the target is T15, 4H2774-AA.
T15 chain: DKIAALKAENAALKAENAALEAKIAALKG
In words: two-hybrid library CCmax. To be noted: mean of both orientations.

Experiment [16] addresses T16, 4H2931-AA.
T16 chain: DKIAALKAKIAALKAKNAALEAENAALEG
In words: two-hybrid library CCmax. To be noted: mean of both orientations.

The target of experiment [17] is T17, 4H3001-AA.
T17 chain: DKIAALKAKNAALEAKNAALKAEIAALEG
In words: two-hybrid library CCmax. As to conditions: mean of both orientations.

Experiment [18] has as its target T18, 4H3015-AA.
T18 chain: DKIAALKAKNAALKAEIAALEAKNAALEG
The experiment in a line: two-hybrid library CCmax. To be noted: mean of both orientations.

Experiment [19] deals with T19, 4H3073-AA.
T19 chain: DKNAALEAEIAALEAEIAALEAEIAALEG
The experiment in a line: two-hybrid library CCmax. As to conditions: mean of both orientations.

In experiment [20] the target is T20, 4H3438-AA.
T20 chain: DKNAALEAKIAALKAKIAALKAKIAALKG
The experiment in a line: two-hybrid library CCmax. To be noted: mean of both orientations.

Experiment [21] deals with T21, 4H347-AA.
T21 chain: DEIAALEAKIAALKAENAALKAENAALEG
The experiment in a line: two-hybrid library CCmax. As to conditions: mean of both orientations.

For experiment [22], the target named is T22, 4H406-AA.
T22 chain: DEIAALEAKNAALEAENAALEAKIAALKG
In words: two-hybrid library CCmax. To be noted: mean of both orientations.

Experiment [23] concerns the target T23, 4H452-AA.
T23 chain: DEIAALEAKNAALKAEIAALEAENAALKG
In words: two-hybrid library CCmax. As to conditions: mean of both orientations.

Experiment [24] has as its target T24, 4H56-AA.
T24 chain: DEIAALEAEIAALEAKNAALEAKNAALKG
The experiment in a line: two-hybrid library CCmax. As to conditions: mean of both orientations.

Experiment [25] deals with T25, 4H_APH.
T25 chain: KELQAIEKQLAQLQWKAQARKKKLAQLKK
In words: two-hybrid library CCmax.

In experiment [26] the target is T26, 4H_BCR.
T26 chain: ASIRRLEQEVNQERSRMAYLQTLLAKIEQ
In words: two-hybrid library CCmax. As to conditions: mean of both orientations.

Experiment [27] deals with 4H_GCN4. In words: two-hybrid library CCmax.
Experiment [28] deals with GCN2_T. The experiment in a line: two-hybrid library CCmax. To be noted: mean of both orientations.
For experiment [29], the target named is T27, P11mSN.
T27 chain: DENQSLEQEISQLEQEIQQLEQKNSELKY
The experiment in a line: two-hybrid library CCNG1.

Experiment [30] deals with T28, P12mSN.
T28 chain: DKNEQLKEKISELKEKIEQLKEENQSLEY
In words: two-hybrid library CCNG1.

In experiment [31] the target is T29, P1mSN.
T29 chain: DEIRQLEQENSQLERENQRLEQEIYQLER
The experiment in a line: two-hybrid library CCNG1.

The target of experiment [32] is T30, P2mSN.
T30 chain: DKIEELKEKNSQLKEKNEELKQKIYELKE
The experiment in a line: two-hybrid library CCNG1.

For experiment [33], the target named is T31, P3mSN.
T31 chain: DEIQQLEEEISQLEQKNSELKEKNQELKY
In words: two-hybrid library CCNG1.

Experiment [34] addresses T32, P4mSN.
T32 chain: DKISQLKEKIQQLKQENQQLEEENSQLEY
In words: two-hybrid library CCNG1.

In experiment [35] the target is T33, P5mSN.
T33 chain: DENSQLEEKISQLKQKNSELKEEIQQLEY
In words: two-hybrid library CCNG1.

In experiment [36] the target is T34, P6mSN.
T34 chain: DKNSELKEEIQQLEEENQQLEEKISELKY
In words: two-hybrid library CCNG1.

Experiment [37] addresses T35, P7mSN.
T35 chain: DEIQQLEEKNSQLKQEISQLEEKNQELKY
The experiment in a line: two-hybrid library CCNG1.

Experiment [38] addresses T36, P8mSN.
T36 chain: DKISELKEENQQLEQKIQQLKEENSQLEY
In words: two-hybrid library CCNG1.

For experiment [39], the target named is T37, P9mSN.
T37 chain: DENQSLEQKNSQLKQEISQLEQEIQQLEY
The experiment in a line: two-hybrid library CCNG1.

Chain of 4H_GCN4 (chain, as listed by the source): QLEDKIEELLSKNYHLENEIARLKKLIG

Molecule DENAALEAKNAALKAKNAALKAKNAALKG [Core_NNNN-es_EKKK] displayed an interaction score in [1] (mean of both orientations) of 1.14.
For the molecule DENAALKAENAALKAKIAALEAKIAALEG [4H1765-AA], the interaction score in experiment [2] was 2.4; in [3] it was -1.42; in experiment [4] it was -0.973; in experiment [5] it was -1.21; in experiment [6], -1.72; in [7] it was -1.25. Besides, the interaction score in experiment [8] was -1.14; in experiment [9], -1.37; in experiment [10], -1.45; in experiment [11] it was -1.7; in [12], -1.63; in experiment [13] it was -1.67. The interaction score was -1.76 in experiment [14]; -1.4 in experiment [15]; -1.83 in [16]; -2.1 in experiment [17]; -1.7 in [18]; -1.02 in [19]. Further, the interaction score in experiment [20] is -0.901; in experiment [21], -1.81; in experiment [22], -1.54; in experiment [23] it was -1.48; in [24], -1.76; in [25], -2.38. In addition, the interaction score in experiment [26] is -1.93; in experiment [27] it was -1.69; in experiment [1], -0.679; in experiment [28] it was -1.28.
For DENQSLEQEISQLEQEIQQLEQKNSELKY [P11mSN], the interaction score was 0.11 in experiment [29]; 1.46 in [30]; -0.413 in [31]; -1.32 in experiment [32]; -0.972 in experiment [33]; 0.374 in [34]. Moreover, the interaction score was -0.097 in experiment [35]; -0.793 in experiment [36]; -1.52 in experiment [37]; 0.0166 in experiment [38]; -1.27 in experiment [39].

(Values after article PMC10397247.)
